Laboratory results as given in US20070117924A1, “Biologically active material conjugated with biocompatible polymer with 1:1 complex, preparation method thereof and pharmaceutical composition comprising the same” (priority 2003, published 2007).

B1: mPEG(20000)-Hz-G-CSF (conjugate, UniProt P09919 31-207, looked up)
Granulocyte …: TPLGPASSLPQSFLLKCLEQVRKIQGDGAALQEKLVSECATYKLCHPEELVLLGHSLGIPWAPLSSCPSQALQLAGCLSQLHSGLFLYQGLLQALEGISPELGPTLDTLQLDVADFATTIWQQMEELGMAPALQPTQGAMPAFASAFQRRAGGVLVASHLQSFLEVSYRVLRHLAQP
modifications: mPEG 20 kDa via hydrazine linker

Key:
[1] = tested on: UMR-10^6 cell line; experiment: In vitro biological activity of mPEG-PTH conjugate: c-AMP synthesized in UMR-10^6 cell line; assay type: cell-based; conditions: concentration of 10-8 mole, FIG. 19
[2] = Half-life of mPEG-Hz-PTH in rats (cAMP in plasma); conditions: male rats, 100 ug/kg intravenous; FIG. 20
[3] = tested on: White Blood Cell (WBC) count; experiment: White blood cell (WBC) count of PEG-G-CSF-treated rats; assay type: in vivo, Sprague-Dawley rats; conditions: 100 ug/kg into tail vein, blood 0-96 hrs, FIG. 9
[4] = Half life of PEG-G-CSF conjugate in rats (serum activity by cell XTT assay); conditions: 100 ug/kg intravenous, FIG. 8

Molecule	activity retained, % of unreacted PTH (c-AMP synthesized) [1]	detection after administration (not detected) [2]	time after administration at which detected [2]	WBC counts compared with native G-CSF and Neulasta [3]	half-life compared to native G-CSF [4]
mPEG(5000)-Hz-PTH	40%	not detected after 15 mins			
mPEG(12000)-Hz-PTH	30%		1 h		
mPEG(20000)-Hz-PTH	20%		2 h		
unreacted PTH [reference compound]		not detected after 15 mins			
B1				higher WBC counts than both native G-CSF and Neulasta™	much longer half-life compared to native G-CSF
